Source: US5854388A, “Angiotensin IV peptides and receptor” (Washington State University Research Foundation, priority 1994, dated 1998)

Key:
[1] = in vivo; cited from earlier work
AT4 receptor = target: T1, AT4 receptor (Oryctolagus cuniculus, UniProt G1SFU4); assay: 125I-AIV binding and competition, rabbit heart P2 membranes; settings: competition of 0.5 nM 125I-AIV, 120 min, 37° C.
T1 sequence (G1SFU4 1-1025): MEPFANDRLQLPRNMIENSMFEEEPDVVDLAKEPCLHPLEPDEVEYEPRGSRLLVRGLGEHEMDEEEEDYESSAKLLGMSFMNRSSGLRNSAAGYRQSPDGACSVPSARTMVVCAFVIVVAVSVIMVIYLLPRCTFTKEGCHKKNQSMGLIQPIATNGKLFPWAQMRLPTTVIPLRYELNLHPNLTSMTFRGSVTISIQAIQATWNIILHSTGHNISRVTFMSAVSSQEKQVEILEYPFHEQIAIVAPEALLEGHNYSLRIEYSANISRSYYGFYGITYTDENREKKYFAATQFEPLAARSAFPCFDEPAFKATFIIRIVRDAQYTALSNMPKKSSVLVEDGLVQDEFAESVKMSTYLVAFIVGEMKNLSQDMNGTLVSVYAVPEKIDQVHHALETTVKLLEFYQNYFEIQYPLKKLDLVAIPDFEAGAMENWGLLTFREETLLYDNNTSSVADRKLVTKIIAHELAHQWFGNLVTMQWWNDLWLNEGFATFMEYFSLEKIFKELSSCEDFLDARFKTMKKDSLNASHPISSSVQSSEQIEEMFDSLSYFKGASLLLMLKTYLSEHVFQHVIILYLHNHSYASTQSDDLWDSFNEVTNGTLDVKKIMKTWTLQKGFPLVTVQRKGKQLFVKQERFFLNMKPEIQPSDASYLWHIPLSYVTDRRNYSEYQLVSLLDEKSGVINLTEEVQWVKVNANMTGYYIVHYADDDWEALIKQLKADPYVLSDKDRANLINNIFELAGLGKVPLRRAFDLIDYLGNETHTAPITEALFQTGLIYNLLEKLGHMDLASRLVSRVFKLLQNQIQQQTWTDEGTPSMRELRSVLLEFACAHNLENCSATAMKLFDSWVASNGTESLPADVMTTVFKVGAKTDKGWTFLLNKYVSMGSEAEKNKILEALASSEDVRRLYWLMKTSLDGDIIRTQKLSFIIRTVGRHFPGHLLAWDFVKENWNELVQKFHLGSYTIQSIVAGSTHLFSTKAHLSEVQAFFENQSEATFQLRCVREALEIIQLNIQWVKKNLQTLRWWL

rats = assay: Passive avoidance conditioning after icv injection; type: in vivo, rat
[2] = in vivo; cited from earlier work; remark: listed apart in the source
[3] = Stability of angiotensin peptides in binding buffer (reverse phase HPLC); type: physicochemical; settings: 4 h at 37° C.
Protocol: Binding studies were carried out in a buffer (below) containing an extensive cocktail of inhibitors that was designed to minimize metabolism of both the receptor and the test ligand, i.e., the buffer contained 5 mM EDTA, 0.2% BSA, […] Bestatin, 50 μM Plummer's inhibitor, and 100 μM PMSF.

In the case of “Asp1 Arg2 Val3 Tyr4 Ile5 His6 Pro7 Phe8 (DRVYIHPF) [AII]”, the half-lives [1] is given as 4.4 min, the Ki (AT4 receptor) is given as over 1000 nM and the “passive avoidance latency / cognitive effect (in words)” value (rats) is given as “no specific effect”. The “metabolized during transit through the kidney” value [2] was 72-76% and the “hydrolysis in binding buffer” value [3] was “less than 10%”.
